Key:
histidine tagged TRAIL [1] = target: T1, histidine tagged TRAIL (UniProt P50591 95-281, limits assumed); assay: ELISA; biotinylated DR5 mAb 1 on 1 µg/mL TRAIL-His coat
T1 construct: also called TRAIL-His; TRAIL ligand; not shown: histidine tag

human DR5 = human DR5 (human, UniProt O14763 56-210, limits assumed); assay: titration with fluorescence readout (y axis: Log MFI); the text does not describe the assay format
[2] = target: T2, His-tagged cynomolgus monkey DR5 (cynomolgus monkey (Macaca fascicularis)); assay: Biacore (SPR); DR5 mAb 3×CD3 mAb 2 diabody with His-tagged cynomolgus monkey DR5
T2 construct: also called His-tagged DR5
Description: (§1) Bi-specific DR5×CD3 diabodies were incubated with His-tagged DR5 and the kinetics of binding was determined via Biacore analysis.

histidine tagged TRAIL [3] = target: T1, histidine tagged TRAIL; assay: ELISA; biotinylated DR5 mAb 2 on 1 µg/mL TRAIL-His coat
[4] = target: T2, His-tagged cynomolgus monkey DR5; assay: Biacore (SPR); DR5 mAb 2×CD3 mAb 2 diabody with His-tagged cynomolgus monkey DR5
Description: as §1

[5] = target: T2, His-tagged cynomolgus monkey DR5; assay: Biacore (SPR); DR5 mAb 4×CD3 mAb 2 diabody with His-tagged cynomolgus monkey DR5
Description: as §1

Sequence of human DR5 (O14763 other isoform, or with tags, fused parts or gaps limits assumed): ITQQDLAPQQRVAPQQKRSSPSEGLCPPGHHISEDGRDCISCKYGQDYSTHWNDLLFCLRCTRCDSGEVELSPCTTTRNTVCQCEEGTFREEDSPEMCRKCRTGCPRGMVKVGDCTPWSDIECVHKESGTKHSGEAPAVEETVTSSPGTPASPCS

B1: DR5 mAb 1 (antibody, V domains shown)
VH: EVKFLESGGGLVQPGGSLKLSCVASGFDFSRYWMSWVRQAPGKGLEWIGEINPDSNTINYTPSLKDKFIISRDNAKNTLYLQMTKVRSEDTALYYCTRRAYYGNPAWFAYWGQGTLVTVSS
VL: DIVLTQSPASLAVSLGQRATISCRASKSVSSSGYSYMHWYQQKPGQPPKVLIFLSSNLDSGVPARFSGSGSGTDFTLNIHPVEDGDAATYYCQHSRDLPPTFGGGTKLEIK
notes: Murine anti-human DR5 monoclonal antibody; also called anti-human DR5 monoclonal antibody DR5 mAb 1
For B1, the binding result (histidine tagged TRAIL [1]) was “no binding (tested: 2 µg/mL)” and the “EC50 (read off the curve)” value (human DR5) was roughly 1 nM.

B2: DR5 mAb 3×CD3 mAb 2 diabody (bispecific antibody)
chain 1: SELTQDPAVSVALGQTVRITCSGDSLRSYYASWYQQKPGQAPVLVIYGANNRPSGIPDRFSGSSSGNTASLTITGAQAEDEADYYCNSADSSGNHVVFGGGTKLTVLGGGGSGGGGEVQLVESGGGLVQPGGSLRLSCAASGFTFSTYAMNWVRQAPGKGLEWVGRIRSKYNNYATYYADSVKGRFTISRDDSKNSLYLQMNSLKTEDTAVYYCVRHGNFGNSYVSWFAYWGQGTLVTVSSASTKGEVAACEKEVAALEKEVAALEKEVAALEK
chain 2: QAVVTQEPSLTVSPGGTVTLTCRSSTGAVTTSNYANWVQQKPGQAPRGLIGGTNKRAPWTPARFSGSLLGGKAALTITGAQAEDEADYYCALWYSNLWVFGGGTKLTVLGGGGSGGGGEVQLVQSGGGVERPGGSLRLSCAASGFTFDDYAMSWVRQAPGKGLEWVSGINWQGGSTGYADSVKGRVTISRDNAKNSLYLQMNSLRAEDTAVYYCAKILGAGRGWYFDYWGKGTTVTVSSASTKGKVAACKEKVAALKEKVAALKEKVAALKE
notes: Two-chain bi-specific DR5×CD3 diabody with the VL and VH of drozitumab (DR5 mAb 3); also called drozitumab variable domains
B2 showed a Kd [2] of 13.3 nM.

B3: DR5 mAb 2 (antibody, V domains shown)
VH: KVQLQQSGAELVKPGASVKLSCKASGYTFTEYILHWVKQKSGQGLEWIGWFYPGNNNIKYNEKFKDKATLTADKSSSTVYMELSRLTSEDSAVYFCARHEQGPGYFDYWGQGTTLTVSS
VL: DIVMTQSHKFMSTSVGDRVSITCKASQDVNTAVAWYQQKPGQSPKLLIYWASTRHTGVPDRFTGSGSGTDYTLTIKSVQAEDLTLYYCQQHYITPWTFGGGTKLEIK
notes: Murine anti-human DR5 monoclonal antibody; also called anti-human DR5 monoclonal antibody DR5 mAb 2; DR mAb 2
B3: no binding (tested: 2 µg/mL) (histidine tagged TRAIL [3]).

B4: DR5 mAb 2×CD3 mAb 2 diabody (bispecific antibody)
chain 1: DIVMTQSHKFMSTSVGDRVSITCKASQDVNTAVAWYQQKPGQSPKLLIYWASTRHTGVPDRFTGSGSGTDYTLTIKSVQAEDLTLYYCQQHYITPWTFGGGTKLEIKGGGSGGGGEVQLVESGGGLVQPGGSLRLSCAASGFTFSTYAMNWVRQAPGKGLEWVGRIRSKYNNYATYYADSVKGRFTISRDDSKNSLYLQMNSLKTEDTAVYYCVRHGNFGNSYVSWFAYWGQGTLVTVSSASTKGEVAACEKEVAALEKEVAALEKEVAALEK
chain 2: QAVVTQEPSLTVSPGGTVTLTCRSSTGAVTTSNYANWVQQKPGQAPRGLIGGTNKRAPWTPARFSGSLLGGKAALTITGAQAEDEADYYCALWYSNLWVFGGGTKLTVLGGGGSGGGGKVQLQQSGAELVKPGASVKLSCKASGYTFTEYILHWVKQKSGQGLEWIGWFYPGNNNIKYNEKFKDKATLTADKSSSTVYMELSRLTSEDSAVYFCARHEQGPGYFDYWGQGTTLTVSSASTKGKVAACKEKVAALKEKVAALKEKVAALKE
notes: Two-chain bi-specific DR5×CD3 diabody
B4 was tested, and the Kd [4] was 0.42 nM.

B5: DR5 mAb 4×CD3 mAb 2 diabody (bispecific antibody)
chain 1: EIVLTQSPGTLSLSPGERATLSCRASQGISRSYLAWYQQKPGQAPSLLIYGASSRATGIPDRFSGSGSGTDFTLTISRLEPEDFAVYYCQQFGSSPWTFGQGTKVEIKGGGSGGGGEVQLVESGGGLVQPGGSLRLSCAASGFTFSTYAMNWVRQAPGKGLEWVGRIRSKYNNYATYYADSVKGRFTISRDDSKNSLYLQMNSLKTEDTAVYYCVRHGNFGNSYVSWFAYWGQGTLVTVSSASTKGEVAACEKEVAALEKEVAALEKEVAALEK
chain 2: QAVVTQEPSLTVSPGGTVTLTCRSSTGAVTTSNYANWVQQKPGQAPRGLIGGTNKRAPWTPARFSGSLLGGKAALTITGAQAEDEADYYCALWYSNLWVFGGGTKLTVLGGGGSGGGGQVQLQESGPGLVKPSQTLSLTCTVSGGSISSGDYFWSWIRQLPGKGLEWIGHIHNSGTTYYNPSLKSRVTISVDTSKKQFSLRLSSVTAADTAVYYCARDRGGDYYYGMDVWGQGTTVTVSSASTKGKVAACKEKVAALKEKVAALKEKVAALKE
notes: Two-chain bi-specific DR5×CD3 diabody with the VL and VH of conatumumab (DR5 mAb 4); also called conatumumab variable domains
B5 showed a Kd [5] of 16.4 nM.

Reference: patent US20170204176A1 (MacroGenics, published 2017)
